From article PMC10786891, “Massively parallel profiling of RNA-targeting CRISPR-Cas13d”
Where a chain is given by its changes, count along the chain named. Numbers in names are those of the source.

T1: EsCas13d, nuclease-dead (Eubacterium siraeum, UniProt B0MS50, R295A;H300A;R849A;H854A)
T1 sequence: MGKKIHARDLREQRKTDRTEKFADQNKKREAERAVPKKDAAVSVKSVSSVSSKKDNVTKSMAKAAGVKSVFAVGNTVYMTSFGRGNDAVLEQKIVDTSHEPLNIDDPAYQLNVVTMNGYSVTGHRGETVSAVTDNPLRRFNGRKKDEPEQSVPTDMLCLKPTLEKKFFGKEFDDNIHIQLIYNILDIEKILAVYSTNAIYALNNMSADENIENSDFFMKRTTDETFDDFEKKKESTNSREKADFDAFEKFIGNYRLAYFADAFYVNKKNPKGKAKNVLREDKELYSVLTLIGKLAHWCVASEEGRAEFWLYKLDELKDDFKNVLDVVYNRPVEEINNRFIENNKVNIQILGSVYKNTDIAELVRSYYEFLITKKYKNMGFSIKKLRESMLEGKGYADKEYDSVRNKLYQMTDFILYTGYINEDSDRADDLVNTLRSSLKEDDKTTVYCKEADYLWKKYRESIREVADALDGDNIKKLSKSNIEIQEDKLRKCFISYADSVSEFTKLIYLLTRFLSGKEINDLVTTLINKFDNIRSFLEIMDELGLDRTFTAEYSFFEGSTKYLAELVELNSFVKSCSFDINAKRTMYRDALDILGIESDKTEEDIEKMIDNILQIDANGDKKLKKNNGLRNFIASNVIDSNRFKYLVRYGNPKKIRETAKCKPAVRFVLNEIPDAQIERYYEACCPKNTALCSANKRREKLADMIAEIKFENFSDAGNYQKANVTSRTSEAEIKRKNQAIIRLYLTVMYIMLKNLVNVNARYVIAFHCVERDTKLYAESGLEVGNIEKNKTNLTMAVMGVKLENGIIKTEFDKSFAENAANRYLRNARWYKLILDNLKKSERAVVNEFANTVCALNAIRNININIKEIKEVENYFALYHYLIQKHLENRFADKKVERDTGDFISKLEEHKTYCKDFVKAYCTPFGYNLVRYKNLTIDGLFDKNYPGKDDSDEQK

B1: target 1 MT 5'PFS GUG 3'PFS AGC (mixed)
RNA 1: CACCCGUGCAAAAAUGCAGGGGUCUAAAACUGAGCGGAUAACCUCUCUAUGG
RNA 2: GGGAAUGGAUCCACAUCUACGAAUUCGUGCCAUAGAGAGGUUAUCCGCUCAAGCAGAUCGGAAGAGCACACGU
B2: target 1 MT 5'PFS GUA 3'PFS UGG (mixed)
RNA 1: B1 RNA 1
RNA 2: B1 RNA 2 with G29A, A52U, C54G
B3: target 1 MT 5'PFS UGC 3'PFS CUG (mixed)
RNA 1: B1 RNA 1
RNA 2: B1 RNA 2 with G27U, U28G, G29C, A52C, G53U, C54G
B4: target 1 MT 5'PFS UAC 3'PFS CGG (mixed)
RNA 1: B1 RNA 1
RNA 2: B1 RNA 2 with G27U, U28A, G29C, A52C, C54G
B5: target 1 MT 5'PFS UCA 3'PFS AAG (mixed)
RNA 1: B1 RNA 1
RNA 2: B1 RNA 2 with G27U, U28C, G29A, G53A, C54G
B6: target 1 MT 5'PFS UAA 3'PFS UGC (mixed)
RNA 1: B1 RNA 1
RNA 2: B1 RNA 2 with G27U, U28A, G29A, A52U
B7: target 1 MT 5'PFS GCA 3'PFS AGU (mixed)
RNA 1: B1 RNA 1
RNA 2: B1 RNA 2 with U28C, G29A, C54U
B8: target 1 MT 5'PFS CUU 3'PFS CUG (mixed)
RNA 1: B1 RNA 1
RNA 2: B1 RNA 2 with G27C, G29U, A52C, G53U, C54G
B9: target 1 MT 5'PFS UCA 3'PFS AAC (mixed)
RNA 1: B1 RNA 1
RNA 2: B1 RNA 2 with G27U, U28C, G29A, G53A
B10: target 1 MT 5'PFS ACA 3'PFS UUC (mixed)
RNA 1: B1 RNA 1
RNA 2: B1 RNA 2 with G27A, U28C, G29A, A52U, G53U
B11: target 1 MT 5'PFS AAC 3'PFS UAC (mixed)
RNA 1: B1 RNA 1
RNA 2: B1 RNA 2 with G27A, U28A, G29C, A52U, G53A
B12: target 1 MT 5'PFS AGG 3'PFS AGA (mixed)
RNA 1: B1 RNA 1
RNA 2: B1 RNA 2 with G27A, U28G, C54A
B13: target 1 MT 5'PFS AGU 3'PFS AAA (mixed)
RNA 1: B1 RNA 1
RNA 2: B1 RNA 2 with G27A, U28G, G29U, G53A, C54A
B14: target 1 MT 5'PFS GCA 3'PFS AGA (mixed)
RNA 1: B1 RNA 1
RNA 2: B1 RNA 2 with U28C, G29A, C54A
B15: target 1 MT 5'PFS CUA 3'PFS UCU (mixed)
RNA 1: B1 RNA 1
RNA 2: B1 RNA 2 with G27C, G29A, A52U, G53C, C54U
B16: target 1 MT 5'PFS CUU 3'PFS CUC (mixed)
RNA 1: B1 RNA 1
RNA 2: B1 RNA 2 with G27C, G29U, A52C, G53U
B17: target 1 MT 5'PFS AGG 3'PFS AGC (mixed)
RNA 1: B1 RNA 1
RNA 2: B1 RNA 2 with G27A, U28G
B18: target 1 MT 5'PFS ACA 3'PFS UUA (mixed)
RNA 1: B1 RNA 1
RNA 2: B1 RNA 2 with G27A, U28C, G29A, A52U, G53U, C54A
B19: target 1 A9U,U11A (mixed)
RNA 1: B1 RNA 1
RNA 2: B1 RNA 2 with G29A, U41A, A43U, A52C, G53C, C54G
B20: target 1 MT 5'PFS AAG 3'PFS CGG (mixed)
RNA 1: B1 RNA 1
RNA 2: B1 RNA 2 with G27A, U28A, A52C, C54G
B21: target 1 MT 5'PFS GGC 3'PFS CCC (mixed)
RNA 1: B1 RNA 1
RNA 2: B1 RNA 2 with U28G, G29C, A52C, G53C
B22: target 1 MT 5'PFS UCA 3'PFS AAA (mixed)
RNA 1: B1 RNA 1
RNA 2: B1 RNA 2 with G27U, U28C, G29A, G53A, C54A
B23: target 1 MT 5'PFS UGC 3'PFS CUA (mixed)
RNA 1: B1 RNA 1
RNA 2: B1 RNA 2 with G27U, U28G, G29C, A52C, G53U, C54A
B24: target 1 MT 5'PFS GUA 3'PFS UGA (mixed)
RNA 1: B1 RNA 1
RNA 2: B1 RNA 2 with G29A, A52U, C54A
B25: target 1 G13A,C22U (mixed)
RNA 1: B1 RNA 1
RNA 2: B1 RNA 2 with G29A, C30U, G39A, A52C, G53C, C54G
B26: target 1 MT 5'PFS CUU 3'PFS CUA (mixed)
RNA 1: B1 RNA 1
RNA 2: B1 RNA 2 with G27C, G29U, A52C, G53U, C54A
B27: target 1 MT 5'PFS AGU 3'PFS AAC (mixed)
RNA 1: B1 RNA 1
RNA 2: B1 RNA 2 with G27A, U28G, G29U, G53A
B28: target 1 MT 5'PFS AGU 3'PFS AAG (mixed)
RNA 1: B1 RNA 1
RNA 2: B1 RNA 2 with G27A, U28G, G29U, G53A, C54G
B29: target 1 MT 5'PFS GCA 3'PFS AGG (mixed)
RNA 1: B1 RNA 1
RNA 2: B1 RNA 2 with U28C, G29A, C54G
B30: target 1 MT 5'PFS AUG 3'PFS CUC (mixed)
RNA 1: B1 RNA 1
RNA 2: B1 RNA 2 with G27A, A52C, G53U
B31: target 1 MT 5'PFS UGU 3'PFS AUA (mixed)
RNA 1: B1 RNA 1
RNA 2: B1 RNA 2 with G27U, U28G, G29U, G53U, C54A
B32: target 1 insC 3' of 20,insG 3' of 18 (mixed)
RNA 1: B1 RNA 1
RNA 2: GGGAAUGGAUCCACAUCUACGAAUUCGUACCACUAGGAGAGGUUAUCCGCUCACCGAGAUCGGAAGAGCACACGU
B33: target 1 U10A,U11G (mixed)
RNA 1: B1 RNA 1
RNA 2: B1 RNA 2 with G29A, U41G, U42A, A52C, G53C, C54G
B34: target 1 MT 5'PFS UCA 3'PFS AAU (mixed)
RNA 1: B1 RNA 1
RNA 2: B1 RNA 2 with G27U, U28C, G29A, G53A, C54U
B35: target 1 MT 5'PFS GUA 3'PFS UGC (mixed)
RNA 1: B1 RNA 1
RNA 2: B1 RNA 2 with G29A, A52U
B36: target 1 MT 5'PFS UGG 3'PFS AGU (mixed)
RNA 1: B1 RNA 1
RNA 2: B1 RNA 2 with G27U, U28G, C54U
B37: target 1 MT 5'PFS UAU 3'PFS CUU (mixed)
RNA 1: B1 RNA 1
RNA 2: B1 RNA 2 with G27U, U28A, G29U, A52C, G53U, C54U
B38: target 1 MT 5'PFS AAG 3'PFS CGA (mixed)
RNA 1: B1 RNA 1
RNA 2: B1 RNA 2 with G27A, U28A, A52C, C54A
B39: target 1 MT 5'PFS GUG 3'PFS CGU (mixed)
RNA 1: B1 RNA 1
RNA 2: B1 RNA 2 with A52C, C54U
B40: target 1 MT 5'PFS AAC 3'PFS UAU (mixed)
RNA 1: B1 RNA 1
RNA 2: B1 RNA 2 with G27A, U28A, G29C, A52U, G53A, C54U

target: T1, EsCas13d, nuclease-dead; experiment: crRNA (strand 1, pre-loaded); Mg2+; 40 mM Tris-HCl pH 7.5, 150 mM NaCl, 6 mM MgCl2, 1 mM DTT, 0.1% Tween-20, 0.2 mg/ml BSA; 25 C; 10 min per concentration, then washed; conditions: tags: His6-TwinStrep-SUMO cleaved; N-terminal SNAP kept (SNAP-Surface 488); label: 3' end held by stalled T7 RNA polymerase

Row | Binder | Kd
1 | B1 | 9.45 ± 0.75 nM
2 | B2 | 58.5 ± 7.5 nM
3 | B3 | 13.2 ± 2.8 nM
4 | B4 | 44.5 ± 21 nM
5 | B5 | ~70 nM
6 | B6 | 31 ± 8 nM
7 | B7 | 23 ± 5 nM
8 | B8 | 41 ± 19 nM
9 | B9 | 18.6 ± 5.7 nM
10 | B10 | 12.7 ± 4.2 nM
11 | B11 | 31 ± 13 nM
12 | B12 | 37.5 ± 8.5 nM
13 | B13 | ~100 nM
14 | B14 | 22.5 ± 4.15 nM
15 | B15 | 4.9 ± 0.7 nM
16 | B16 | ~15 nM
17 | B17 | ~52 nM
18 | B18 | 8.85 ± 2.9 nM
19 | B19 | 23.4 ± 1.1 nM
20 | B20 | 41 ± 12.5 nM

Row | Binder | Kd
21 | B21 | ~25 nM
22 | B22 | 21 ± 9 nM
23 | B23 | 18 ± 7 nM
24 | B24 | 11.2 ± 0.65 nM
25 | B25 | 10.7 ± 1.7 nM
26 | B26 | 29.5 ± 12.5 nM
27 | B27 | 49 ± 16 nM
28 | B28 | 55 ± 24 nM
29 | B29 | 43.5 ± 10 nM
30 | B30 | 21.1 ± 5.75 nM
31 | B31 | 62.5 ± 23 nM
32 | B32 | 12.9 ± 0.8 nM
33 | B33 | 11.6 ± 0.5 nM
34 | B34 | 19.2 ± 6.35 nM
35 | B35 | 5.68 ± 0.46 nM
36 | B36 | 67 ± 33 nM
37 | B37 | 39.5 ± 12.5 nM
38 | B38 | 38 ± 16 nM
39 | B39 | 6.83 ± 0.425 nM
40 | B40 | 15 ± 5.5 nM
